Experimental data reported in paper PMC3745449.

Tests used:
[1] = target: His6-tagged N-terminal domain of turkey pancreatic lipase (turkey)
[2] = target: His6-tagged N-terminal domain of turkey pancreatic lipase (turkey); remark: listed apart in the source

A time for which N-TPL stays active in tributyrin (TC4) hydrolysis (pH-Stat, pH 8.5, 37°C) with colipase; without colipase the activity is lost after 3 min [1] of over 8 min and an increase of N-TPL lipase activity on tributyrin (TC4) when colipase is present in the hydrolysis medium [2] of 15% were found for Turkey colipase (natural protein) in this work.
